# Results as given in a protein production outcome set (Wang et al. 2014).
# Assay: label from the status in PepcDB records
row,Sequence,protein production
1,MVSRIPTGNRGQGNGIEQSASSHATEATPWLGVNLPYGHWLPSSARSVVSRASSLLGGLANFRWGGRPASARPAPNIRSAAIAPAQQTLPPELWQQIATLAGARPRRAMREVSLELRNASRAVVTHLTISDPAMFRQLSLYPALKSVRFKGELTLEALKALPPELEHLEIGRCTGSAISAEGLAHLASMPLKSLNLNGIEIGVEGARTLAASKSLVSLSLIGCGIGDRAAQALVASRSIQCLDLSVNRIGRDGAQALAGAPLVSLNLHNNEIGNEGARVLATSRTLTSLDVSNNGVGNAGAEAFAGNTVLKQLSLAGGMISGDGAQALADNKSLTDLDLSNNRLGDAGAQALADSESFVSLKLGGNEIGADGAEALARNVVLQSLNLSYNPIGFWGVNALGRAKLRKLDLCACAIDSDGASALARNTSLASLYLGSNRIGDDGARALAKNSTLTLLNLSGNNIHAVGAQALASNDSLITLDLSRNGIGDDGTAALACHPRLTSLNLSRNQIGSTGAQQLAKSATLAELDLSENRIGPEGAEALARSTVLTTLNVSYNAIGEAGARALAESVSLTSLDARRNGIGEDGAKVLEANTRITGTPQNPNFLAEDVPRPDVRWRD,failed
2,MPGKREMQKCSLITVLSLSVLMLAGCTTTYTMTTRTGEIIETQGKPEVDTATGMTKYADVYGYHRVMKTSEIVQTTEGASKLDWLEHHHHHH,not failed
3,MMKTMDIIIPREFVSDDQYLLQKLCVVNNDFVKEGEILALIESSKSVIDVTSPADGYVYFFSDEGDIVSVGERLALLASTKEALQVEIENSNKNSQRRKESETKSEDVSLSGVRCSKKALLLMKQHNIDVGAFDGLGMVTAQDVEHYLSSREKAVKATVAPSSVNRQKIIILGGGGHSKVCIDILRQAQSFTIAGILDSIQDIGAEVLGIPVIGRDTMPELLKTRESGISLAVNGIGLIPDHRNRCKLFERLLEAGFHLPNLIHPKASIEPSAKLGEGNQIMAGAIIGSDVTVGNYCLINSGVVVSHDCIIDDHVHLAPGALLAGAVRVGRNSLIGMGVTIYAKVTIGSNVVIANGANVFHDVPDNTVVKI,failed
4,MAQQWSLQRLAGRHPQDSYEDSTQSSIFTYTNSNSTRGPFEGPNYHIAPRWVYHLTSVWMIFVVIASVFTNGLVLAATMKFKKLRHPLNWILVNLAVADLAETVIASTISVVNQVYGYFVLGHPMCVLEGYTVSLCGITGLWSLAIISWERWMVVCKPFGNVRFDAKLAIVGIAFSWIWAAVWTAPPIFGWSRYWPHGLKTSCGPDVFSGSSYPGVQSYMIVLMVTCCITPLSIIVLCYLQVWLAIRAVAKQQKESESTQKAEKEVTRMVVVMVLAFCFCWGPYAFFACFAAANPGYPFHPLMAALPAFFAKSATIYNPVIYVFMNRQFRNCILQLFGKKVDDGSELSSASKTEVSSVSSVSPA,failed
5,MVVAPYLAVAIGGSLGAMSRYLVTIMAQNAWGIKFPYGTLLVNTLGSFLAGFFLIVLVGRFSAEESFRLFLFTGFLGAFTTFSSFAAESLFMFEQGYWFKLMTNILVNNVGSLSMVFIGTLVAKYVLLGHQGSN,failed
6,MLTPRFDIQPAVSVILPTFDRAPLLASAIESVVAQNFAEWELIVVDDGSSDETFEIVDGYLNQHANIRYMKHRNRKAALSRNAGIQAAFGRYITFLDSDDLYLPEHLESRLHLLESMPEVRLISGGFVCEGDPWVRDRDDPEKLIHVSECIAGATMFGRRELFLDIGGFRALDYAEDTDLWERAARSHKVLKIDQPVSYIYRRSPGSITRTYKPAKPLEHHHHHH,not failed
7,MGHHHHHHENLYFQSHMKFLLAFSLLIPSVVFASSSKFQQVEQDVKAIEVSLSARIGVSVLDTQNGEYWDYNGNQRFPLTSTFKTIACAKLLYDAEQGKVNPNSTVEIKKADLVTYSPVIEKQVGQAITLDDACFATMTTSDNTAANIILSAVGGPKGVTDFLRQIGDKETRLDRIEPDLNEGKLGDLRDTTTPKAIASTLNKFLFGSALSEMNQKKLESWMVNNQVTGNLLRSVLPAGWNIADRSGAGGFGARSITAVVWSEHQAPIIVSIYLAQTQASMEERNDAIVKIGHSIFDVYTSQSR,not failed
8,MKHVRSHLPRVLLGLMISVSLVLAGCANNGTGSSMLGGSGTDPDPRLTKSTDSSFFSTSGLTACAAAAGVGILACAVASPSDKVKCMVVAGIAACGVAMGANYYYDYRRSKYSNTAQRLQLMNDDVKADTEKVAQRTYTLQQVINDDKERIAGIQKSIKTKTLDKAKAQQEIASVDSNLAQMNKDLTGMRSKVAEYKKTADLERASDGGTQVTAIDGEISKMNSKVASLQKEVDGLYSQRQAITLG,failed
9,MPRASISDTIPMTMASIDAGSVRFTARADKRHLNPLGGVHGGFAATVLDSVTGCAIHSILEAGVGYGTVDLSVKRVKAVPEDTPLVAEGRVLHVPCAIGSQRADLMLAPPRLGRDRRCPAGLEHHHHHH,failed
10,MKAKHLTQLLKASFLSCSMIATTLSMAQLPPAPQEKYGDGRVSEFYTWKSAIPAQPGKLLRTEAVHNPYIRLANDSQAIRILYSSTSGKDSKTPIVVSGSIHLPKGNPPKEGWPVVLWAHGTVGLADACAPSWSGRSYRDVQYLNRWLNEGFAVVATDYEGLGVAGPHLLINNPMLAYSILDSGRAALKTKLPLANKFVIVGQSQGGAGAVAASSYSATYAPDLNIKGSIGTGVIYKDPEATPEKNQLKLNPYEVSPSLAYGIYSFLVTQSLYPEIKTEEIFTPEAAPLVEQARNACLTSFMGDIQTAGLSPAQAYKPNPPTSYKKLQEKESNDYGYYPTLKISHPLFIGTGANDRTPDARSQMKLVADACKAGTVVEGHLYHGLGHSETVNASLKDSIPFAKKVIAGEKIQAICKPDLQ,failed
11,MSSDHRDQYYWRAKRDQFRSRAAYKLEFLIERYGIIKDGQAVLEIGSSPGGWTQVLVDHGCRVVAVDIQPMDEIPGVIFLKLNILREDAAERIREEMARSLVQRFDVVLSDAMAKTSGIRSSDHAASVMIGNAVMKIAMDTLRRGGVAVVKQFQGDMTGDFIKNWGHYFRDHRITKPPASRKESSEVYIIFYGFSGKETDNSVQG,failed
12,VEPSEENSKDCVVCQNGTVNWVLLPCRHTCLCDGCVKYFQQCPMCRQFVQESFAL,not failed
13,MEETILIVSFLLFLILSNVINRIFPKLPLPFIQLVFGILSGLVFHKSQVHIDPELFLAFVIAPLNFREGQESDIGSFIKYRAIILYLILPTVFLTAIVVGYVAGHLLPVSLPLAACFALGAALGPTDAVAFISIAKRFQFPKRAENILKLEGLLNDASGLVSFQFALTALVTGYFSLAKASLKLALAIMGGFLIGLLFAFLMRLCLTVLEKFDAADVTGALLLELTLPFVAYFVADLLGFSAIIAVVVAGVMQANRLKKVTLFDAQVDRVTSVIWETLNFILNGLVFLIFGRELTRIIGPLLTSNAYSNFDLISIVVLVTCTLFLVRFLAVSCFYAWRSFKYHKSFKKYWREIQLLTFSGVKGSVSIATILLLPKHSVIGELGYSLILFTVGAVTLMSFLTGLLVLPKLAPPLQVKDDYLIRLSILTKVLSVLEEDGKSSENQASFYAVIDNYNSRIRHLILEQESSDIKKDLAELQLMMLSIESDGLEAAYRYGNISIKEYRIYQRYLKYLERQVNRSFVSNITYSLTILMRVIRGIVHEFLTFGQGIRNRKKHFKNRKRLLAEVNRQHLTDLYLSNNDLILETLEDMEGYYNATLIDFLQNERIRDAELIKSGLFVERVIARITPDILNETLRGYYLERRTISEFERDGLISSKESQILRDNVNELESYSLRDSQSSIPYQLLDLKK,failed
14,MAVRGVSLRQPYPREPRGWHQEWSLRRAMRMARAAYWESYSATATDFWMSAEFTSLYDADTPDDSVPLAPARDHDLTDSHAILQAHYAACWTEGRPFAVETKLIKPDGRLLDCVVHGEPEFDANGQVQRVFGIVRDATPETSALRQLAVSEQRLADFVSTASDWCWESGPDHRLLPYPKSLDGNAALQTVASGGKARWELAYAPDEEGSMALHRDDMEAHRPFRDFIYTSIGNDGSRIIISTSGKPIFADDGTFLGYRGTASDITQLAAARTLLDQRTGALEEAHRLGRIGTWTHRLDTGRTVWSPELYQLLGLEPDAFEPTYEGTEPYFLDDDAARLLKIQKRVLRTSTTEATDIRILHTDGTPRDLAIICKAEISNGNVIGLIGTAQDVTDRKEAERRLEQLAYTDPLTGLANRALYKRKLADLFENPMAEHGQNALYLIDLDRFKEVNDSLGHSTGDSLLIHVAGVLRQELGPQAFIARIGGDEFAVLTNSPNTSVEATTALADRLIAKLSVPVELAEGEACIGATIGIAILPEHGATAEKASRNADLALYMAKEAGRGRAQLFEPMYAEAVDQKLDLGRRLRHAVDSGGLNTHYQPQIDLKTGRVIGFEALLRWSHPERGPISPAEFIPIAETTGLIVDLGHWVLRDACKQMRGWLDAGLPARTISVNVSPAQIWNGDFEKVVATVLADTGLPPELLCLELTENLFVDHTKQKVSTTLAALSKLGIQLALDDFGSGYSSLGYLTRLPFNRLKIDRSFVDGIATVPEKRKLLGGIIALSHGLGMSVVAEGAELQAEVDLLAAFDCDFVQGYAFSKPVAADQAAVVAAEIERKPGR,failed
15,MSSPVVEIQIWSDLICPWCWIGKRRLERALRNSSLFADIKVRHRAFRLMPELIPLPVIDVLQQRYGGSAEQIVAIQQRIEKIAAEESLIYRLVGTQGADTLQAHRLLYLAHRQGLQEVLLERFYSAYFSEGTPIFDTDTLAPLALDVGLERTAVAALFAGQDFIAEIEDDQRRLQRYGANGVPFFLMDGRIAVNGAQPIEAFSDALAQLNADAASQSAFFLR,failed
16,SDRKVAREFRHKVDFLIENDAEKDYLYDVLRMYHQTMDVAVLVGDLKLVINEPSRLPLFDAIRPLIPLKHQVEYDQLTPRRSRKLKEVRLDRLHPEGLGLSVRGGLEFGCGLFISHLIKGGQADSVGLQVGDEIVRINGYSISSCTHEEVINLIRTKKTVSIKVRHIGLIPVKSSPDEPLTWQYVDQFVSESGGVRGSLGSPGNRENKEKKVFISLVGSRGLGCSISSGPIQKPGIFISHVKPGSLSAEVGLEIGDQIVEVNGVDFSNLDHKEGRELFMTDRERLAEARQRELQRQELLMQKRLAMESNKILQEQQEMERQRRKEIAQKAAEENERYRKEMEQIVEEEEKFKKQWEEDWGSKEQLLLPKTITAEVHPVPLRKPKYDQGVEPELEPADDLDGGTEEQGEQDFRKYEEGFDPYSMFTPEQIMGKDVRLLRIKKEGSLDLALEGGVDSPIGKVVVSAVYERGAAERHGGIVKGDEIMAINGKIVTDYTLAEADAALQKAWNQGGDWIDLVVAVCPPKEYDDELTFF,failed
17,MGAMAEIQFIRGINEEVVPDVRLTRARDGSSGQAMFYFDNPKIVQEGNLEVTGMYMVDEEGEIVTRDVNAKFINGQPVAIEATYTMRSPQEWDRFIRFMDRYAASHGLGFQKSENS,failed
18,MICTEALQRISFSSDLGQSDKAPPPVIEPSGLIRRDETLLDSSNSDFEFHISNSFDPGDSSPADEIFADGMILPFHVTAASTVPKRLYKYELPPITSSLSPSPLSPQPLPTKHSEKETNGRASGANSDSEAEKSSKSFWSFKRSSSLNCDIKKSLICSFPRLTRSNSTGSVTNSKRAMLRDVNNHRPSSRSSCCNAYQFRPQKHTGKKGEGGGSFSVIPVLNGPSTFGLGSILRHSNSKDKTKTKKKKNKK,failed
19,EEAGRSATEIARAVAAVSAPIDLVAAGAAIDSGVNRLIYTRHFLRTMIPNALAKWQQHPGLFDRELVQRATTLREFDDAFTAPLHGFTGVDDYWTRASSKPHLHKITIPALVVNARNDPFVPAVSLPTQDEVGEMVTLWQPDEGGHVGFATGPWPGRIAAMPEAVSDWLGAV,failed
20,MKNLEKCILCGSHNIVPHWKNVRSYNVSKCLDCSFLFLHEIIDDHELENYYSQSYFMASYAKTENNLIDAANNPKITAEAKEYANLIKLHHPEAHNVGEIGCSWGYLLYNLQNFGYSAKGFELSKTTAEMGSKQLGINITSGFFETQYNQFDVLILRHVLEHVPDPQDLLEKIYDSIKKDGLFILEGPNLDSISSRLFGKNVSWVSPPDHISFPNFISLIMACEKLGFTCIHKSSRRGRGISIFHQALLNSVGLMFGGKEKAKVNLGGINEKPNNQQLSSLKSAALKIVDFLDFLSSPMQPFLKQALLEEEMLIIFKKLEHHHHHH,failed
